Measurements from publication PMC4398322, “Snake neurotoxin α-bungarotoxin is an antagonist at native GABAA receptors” (Neuropharmacology, 2015).

Experiments:
[1] = test system: E18 rat hippocampal cultured neurons; experiment: Live cell confocal microscopy of fluorescent α-Bgtx binding to cultured hippocampal neurons; details: 400 nM; untransfected neurons
Protocol: Dissociated hippocampal neurons were prepared from embryonic day 18 rat pups as described ([Hannan et al., 2012]). Briefly, hippocampi were dissected in ice-cold Hank's Balanced Salt Solution (HBSS) (Ca^2+/Mg^2+ free) before enzymatic dissociation in 0.1% (w/v) trypsin at 37 °C for 10 min followed by serial washes in pre-warmed HBSS to remove trypsin prior to trituration. Cells were mechanically dissociated using fire-polished glass Pasteur pipettes in plating medium composed of minimal essential medium (MEM) supplemented with 5% (v/v) fetal calf serum (FCS), 5% (v/v) horse serum, penicillin-G and streptomycin (200 units/ml and 200 μg/ml), 2 mM L-glutamine and 35 mM glucose. Cells were plated at a density of 10^6 per ml in plating medium on glass cover-slips previously coated with poly-D-lysine. The neurons were grown and maintained at 37 °C in a humidified 95% air/5% CO2 atmosphere.
In addition, low concentrations of fluorophore-conjugated α-Bgtx can also be used to avoid labelling of GABAARs as the affinity of α-Bgtx for endogenous GABAARs is lower compared to that for the BBS. […] Similarly, the over-expression of recombinant receptors in heterologous expression systems (HEK-293 cells) allows the detection of α-Bgtx fluorescence at low concentrations.

[2] = molecular target: T1, β2 homomers (Mus musculus, UniProt P63137); experiment: α-Bgtx-AF555 staining of HEK-293 cells expressing β homomers, with or without permeabilisation; format: binding, murine; details: 400 nM α-Bgtx-AF555, with or without permeabilisation
T1 construct: expressed in transfected cells; host or cells: HEK-293
Protocol: (§1) Murine GABAAR α1-6, β1-3, γ2 and δ cDNAs subcloned into pRK-5 and pEGFP-C1 have been described previously ([Mortensen et al., 2011]).
(§2) Cells were transfected with equimolar ratios of cDNAs encoding for α1–6, β1–3 and δ or γ2 GABAA receptor subunits along with eGFP using a calcium phosphate method ([Mortensen et al., 2011]) 15–45 min after plating.
(§3) Live transfected HEK-293 cells were studied 48 h after transfection and washed with Krebs to remove cell culture media and incubated in 400 nM α-Bgtx coupled with Alexa Fluor 555 (α-Bgtx-AF555; Life Technologies) for 10 min at room temperature (RT). Cells were washed and fixed in 4% paraformaldehyde (PFA; Sigma) for 10 min at RT. The cells were imaged immediately post-fixation in saline using a Zeiss LSM 510 Meta confocal microscope and an Achroplan x40 water DIC objective (NA 0.8) as described previously ([Hannan et al., 2012]). This involved choosing the optimal z-section and acquiring images as a mean of 4 scans in 16-bits using a 543 nm Helium–Neon laser and a 560 nm long-pass filter for α-Bgtx-AF555 and a 488 Argon laser with a 505–530 nm band-pass filter for eGFP.
(§4) In experiments using permeabilisation, cells were fixed in 4% PFA for 10 min at RT followed by washes (x3) in phosphate buffered saline (PBS; Sigma) and 0.1% triton-X100 (Sigma) was added for 10 min at RT in 10% (v/v) FCS. Cells were washed to remove the detergent and 400 nM α-Bgtx-AF555 was added for 10 min at RT to label intracellular receptors.
(§5) Confocal images were analysed using ImageJ (version 1.410) as described previously ([Hannan et al., 2013]). For each cell the surface membrane was identified by drawing a region-of-interest (ROI) in the eGFP channel and this was transferred to the α-Bgtx-AF555 channel and the mean membrane fluorescence values were determined. Mean background fluorescence was determined from a region devoid of cells. This was subtracted from the mean membrane fluorescence providing a mean corrected fluorescence intensity value. These values, for different combinations of receptors and drugs, were graphically plotted using Origin.

[3] = molecular target: T2, β3 homomers (Mus musculus, UniProt P63080); experiment: as above; format: binding, murine; details: 400 nM α-Bgtx-AF555, with or without permeabilisation
T2 construct: expressed in transfected cells; host or cells: HEK-293
Protocol: as §1, §2, §3, §4, §5

[4] = molecular target: T3, β1 homomers (Mus musculus, UniProt P50571); experiment: as above; format: binding, murine; details: 400 nM α-Bgtx-AF555, with or without permeabilisation
T3 construct: expressed in transfected cells; host or cells: HEK-293
Protocol: as §1, §2, §3, §4, §5

[5] = molecular target: T4, α2β2γ2 GABAAR (Mus musculus, UniProt P22723+P26048+P63137); experiment: α-Bgtx-AF555 cell surface staining of transfected HEK-293 cells; format: binding, murine; details: 400 nM α-Bgtx-AF555, 10 min RT; n = 6
T4 construct: expressed in transfected cells; host or cells: HEK-293
Protocol: as §1
(§6) HEK-293 cells were maintained at 37 °C in a humidified 95% air/5% CO2 atmosphere in Dulbecco's modified Eagle's medium (DMEM) supplemented with 10% (v/v) fetal calf serum (FCS), penicillin-G and streptomycin (100 units/ml and 100 μg/ml), 2 mM L-glutamine. Cells were plated onto 22 mm glass coverslips (VWR), coated with poly-L-lysine (Sigma). All media components were from Life Technologies unless otherwise stated.
as §2, §3, §5

[6] = molecular target: T5, α4β2γ2 GABAAR (Mus musculus, UniProt P22723+P63137+Q9D6F4); experiment: as above; format: binding, murine; details: 400 nM α-Bgtx-AF555, 10 min RT; n = 6; not significant vs eGFP alone
T5 construct: expressed in transfected cells; host or cells: HEK-293
Protocol: as §1, §6, §2, §3, §5

[7] = molecular target: T6, α4β1γ2 GABAAR (Mus musculus, UniProt P22723+P50571+Q9D6F4); experiment: as above; format: binding, murine; details: 400 nM α-Bgtx-AF555, 10 min RT; n = 6; not significant vs eGFP alone
T6 construct: expressed in transfected cells; host or cells: HEK-293
Protocol: as §1, §6, §2, §3, §5

[8] = molecular target: T7, α2β1γ2 GABAAR (Mus musculus, UniProt P22723+P26048+P50571); experiment: as above; format: binding, murine; details: 400 nM α-Bgtx-AF555, 10 min RT; n = 6
T7 construct: expressed in transfected cells; host or cells: HEK-293
Protocol: as §1, §6, §2, §3, §5

[9] = molecular target: T8, α1β1γ2 GABAAR (Mus musculus, UniProt P22723+P50571+P62812); experiment: as above; format: binding, murine; details: 400 nM α-Bgtx-AF555, 10 min RT; n = 6
T8 construct: expressed in transfected cells; host or cells: HEK-293
Protocol: as §1, §6, §2, §3, §5

[10] = molecular target: T9, α1β2γ2 GABAAR (Mus musculus, UniProt P22723+P62812+P63137); experiment: as above; format: binding, murine; details: 400 nM α-Bgtx-AF555, 10 min RT; n = 6
T9 construct: expressed in transfected cells; host or cells: HEK-293
Protocol: as §1, §6, §2, §3, §5

[11] = test system: Receptors containing α3/5/6 subunits and β1/2γ2; experiment: as above; format: binding, murine; details: 400 nM, 10 min RT; P > 0.05
Protocol: as §1, §6, §2, §3, §5

[12] = test system: HEK-293 cells expressing only eGFP; experiment: α-Bgtx-AF555 cell surface staining of HEK-293 cells expressing only eGFP; format: binding; details: 400 nM α-Bgtx-AF555, 10 min RT, n = 6
Protocol: as §6, §2
Live transfected HEK-293 cells were studied 48 h after transfection and washed with Krebs to remove cell culture media and incubated in 400 nM α-Bgtx coupled with Alexa Fluor 555 (α-Bgtx-AF555; Life Technologies) for 10 min at room temperature (RT). […]
as §5, with “These values, for different combinations of receptors and drugs, were graphically plotted using Origin.” left out

T7 sequence (P22723 39-474): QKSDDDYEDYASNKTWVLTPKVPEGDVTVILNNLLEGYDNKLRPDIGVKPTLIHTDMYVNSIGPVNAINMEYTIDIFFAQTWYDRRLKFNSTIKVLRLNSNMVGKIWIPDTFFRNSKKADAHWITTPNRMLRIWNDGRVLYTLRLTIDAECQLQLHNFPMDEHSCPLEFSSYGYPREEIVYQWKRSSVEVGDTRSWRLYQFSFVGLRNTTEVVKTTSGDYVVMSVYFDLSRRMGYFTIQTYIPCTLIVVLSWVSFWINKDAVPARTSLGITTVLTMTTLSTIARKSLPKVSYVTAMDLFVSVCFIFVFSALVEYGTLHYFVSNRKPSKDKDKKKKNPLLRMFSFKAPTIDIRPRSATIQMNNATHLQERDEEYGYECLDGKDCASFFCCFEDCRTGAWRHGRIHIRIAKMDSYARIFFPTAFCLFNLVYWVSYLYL
T7 sequence (P50571 26-474): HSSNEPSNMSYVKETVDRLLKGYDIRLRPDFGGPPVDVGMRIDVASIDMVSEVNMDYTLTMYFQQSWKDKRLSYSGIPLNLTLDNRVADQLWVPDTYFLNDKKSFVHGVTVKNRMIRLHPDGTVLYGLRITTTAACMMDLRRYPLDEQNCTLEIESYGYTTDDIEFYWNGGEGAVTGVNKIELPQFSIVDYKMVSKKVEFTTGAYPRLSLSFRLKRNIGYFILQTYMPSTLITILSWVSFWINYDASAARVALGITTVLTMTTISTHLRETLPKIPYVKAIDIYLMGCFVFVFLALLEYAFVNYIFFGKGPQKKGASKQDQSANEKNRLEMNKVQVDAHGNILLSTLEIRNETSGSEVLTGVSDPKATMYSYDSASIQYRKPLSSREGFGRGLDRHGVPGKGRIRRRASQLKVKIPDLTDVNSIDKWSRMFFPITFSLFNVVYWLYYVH
T7 sequence (P26048 29-451): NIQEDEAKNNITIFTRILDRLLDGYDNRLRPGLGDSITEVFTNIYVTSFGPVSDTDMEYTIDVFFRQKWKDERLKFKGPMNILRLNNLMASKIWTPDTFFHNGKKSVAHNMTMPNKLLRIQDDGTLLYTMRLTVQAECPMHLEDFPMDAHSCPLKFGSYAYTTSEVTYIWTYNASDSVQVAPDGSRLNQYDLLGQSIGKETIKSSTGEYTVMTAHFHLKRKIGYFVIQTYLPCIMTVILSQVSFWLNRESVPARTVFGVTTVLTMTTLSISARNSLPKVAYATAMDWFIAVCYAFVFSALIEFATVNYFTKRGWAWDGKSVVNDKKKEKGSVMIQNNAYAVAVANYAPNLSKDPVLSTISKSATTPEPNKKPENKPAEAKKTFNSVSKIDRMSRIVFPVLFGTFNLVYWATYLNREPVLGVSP
T2 sequence (P63080 26-473): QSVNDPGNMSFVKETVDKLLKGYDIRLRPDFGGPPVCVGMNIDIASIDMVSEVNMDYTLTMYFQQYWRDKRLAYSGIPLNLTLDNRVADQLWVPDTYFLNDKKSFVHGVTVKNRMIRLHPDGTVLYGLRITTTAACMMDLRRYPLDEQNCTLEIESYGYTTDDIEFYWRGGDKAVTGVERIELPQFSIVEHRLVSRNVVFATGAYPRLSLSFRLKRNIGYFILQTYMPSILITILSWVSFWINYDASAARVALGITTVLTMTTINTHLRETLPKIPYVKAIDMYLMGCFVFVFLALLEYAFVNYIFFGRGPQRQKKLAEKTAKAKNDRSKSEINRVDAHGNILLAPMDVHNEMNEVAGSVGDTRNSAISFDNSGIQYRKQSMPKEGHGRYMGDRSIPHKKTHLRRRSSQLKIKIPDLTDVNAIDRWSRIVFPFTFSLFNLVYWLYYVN
T9 sequence (P63137 25-512): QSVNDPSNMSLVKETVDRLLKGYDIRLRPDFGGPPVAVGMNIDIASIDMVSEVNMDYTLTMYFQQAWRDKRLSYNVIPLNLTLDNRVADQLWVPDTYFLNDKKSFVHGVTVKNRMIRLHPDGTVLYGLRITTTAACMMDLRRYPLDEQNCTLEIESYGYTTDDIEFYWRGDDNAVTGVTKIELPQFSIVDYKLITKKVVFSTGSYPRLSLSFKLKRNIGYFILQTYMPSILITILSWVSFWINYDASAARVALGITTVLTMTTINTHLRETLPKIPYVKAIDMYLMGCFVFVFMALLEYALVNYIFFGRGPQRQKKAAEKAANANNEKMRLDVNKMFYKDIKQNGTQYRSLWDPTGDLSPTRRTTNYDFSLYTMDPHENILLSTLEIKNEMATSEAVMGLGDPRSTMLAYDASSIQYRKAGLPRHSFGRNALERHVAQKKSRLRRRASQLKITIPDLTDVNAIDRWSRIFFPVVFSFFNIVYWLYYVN
T9 sequence (P22723 39-474): as the sequence (P22723 39-474) above
T9 sequence (P62812 28-455): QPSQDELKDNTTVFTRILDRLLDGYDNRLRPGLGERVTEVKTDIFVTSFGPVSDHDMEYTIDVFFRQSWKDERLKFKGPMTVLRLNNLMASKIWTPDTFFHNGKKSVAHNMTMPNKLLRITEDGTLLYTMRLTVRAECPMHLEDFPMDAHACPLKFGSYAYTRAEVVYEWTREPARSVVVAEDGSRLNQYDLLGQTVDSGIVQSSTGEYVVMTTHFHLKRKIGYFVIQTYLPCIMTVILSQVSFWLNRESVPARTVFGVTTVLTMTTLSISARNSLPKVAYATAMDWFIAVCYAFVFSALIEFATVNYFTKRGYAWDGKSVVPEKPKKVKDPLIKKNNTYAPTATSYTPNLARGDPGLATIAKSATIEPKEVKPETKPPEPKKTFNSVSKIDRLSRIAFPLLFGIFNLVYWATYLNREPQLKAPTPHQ
T4 sequence (P63137 25-512): as the sequence (P63137 25-512) above
T4 sequence (P26048 29-451): as the sequence (P26048 29-451) above
T4 sequence (P22723 39-474): as the sequence (P22723 39-474) above
T5 sequence (P63137 25-512): as the sequence (P63137 25-512) above
T5 sequence (P22723 39-474): as the sequence (P22723 39-474) above
T5 sequence (Q9D6F4 36-552): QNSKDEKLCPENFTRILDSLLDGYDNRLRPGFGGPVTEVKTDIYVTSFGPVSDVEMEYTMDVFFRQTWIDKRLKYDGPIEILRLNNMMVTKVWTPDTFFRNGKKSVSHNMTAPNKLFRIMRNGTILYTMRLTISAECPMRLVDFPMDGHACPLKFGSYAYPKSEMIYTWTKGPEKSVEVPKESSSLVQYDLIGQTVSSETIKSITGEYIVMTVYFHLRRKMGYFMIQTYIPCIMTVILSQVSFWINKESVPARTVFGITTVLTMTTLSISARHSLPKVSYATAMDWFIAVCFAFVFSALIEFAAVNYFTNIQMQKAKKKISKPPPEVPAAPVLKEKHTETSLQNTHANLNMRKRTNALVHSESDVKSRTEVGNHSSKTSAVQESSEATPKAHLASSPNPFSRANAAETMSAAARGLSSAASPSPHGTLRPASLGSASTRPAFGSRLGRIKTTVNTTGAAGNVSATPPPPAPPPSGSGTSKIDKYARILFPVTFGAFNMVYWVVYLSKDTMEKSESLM
T1 sequence (P63137 25-512): as the sequence (P63137 25-512) above
T6 sequence (P50571 26-474): as the sequence (P50571 26-474) above
T6 sequence (P22723 39-474): as the sequence (P22723 39-474) above
T6 sequence (Q9D6F4 36-552): as the sequence (Q9D6F4 36-552) above
T3 sequence (P50571 26-474): as the sequence (P50571 26-474) above
T8 sequence (P62812 28-455): as the sequence (P62812 28-455) above
T8 sequence (P50571 26-474): as the sequence (P50571 26-474) above
T8 sequence (P22723 39-474): as the sequence (P22723 39-474) above

α-Bgtx-AF555: α-Bgtx coupled to Alexa-Fluor 555 (Life Technologies)
binding of fluorescent α-Bgtx [1]: do not observe any binding | cell surface and intracellular staining [2]: absent | cell surface and intracellular staining [3]: high levels of cell surface and intracellular staining | cell surface and intracellular staining [4]: absent | mean cell surface fluorescence intensity [5]: 1294 a.u. | staining intensity (cell surface fluorescence) [6]: 64 ± 56 a.u. | staining intensity (cell surface fluorescence) [7]: 90 ± 64 a.u. | mean cell surface fluorescence intensity [8]: 1057 ± 64 a.u. | staining intensity (cell surface fluorescence) [9]: 592 ± 46 a.u. | staining intensity (cell surface fluorescence) [10]: 324 ± 33 a.u. | labelling with α-BgTx-AF555 [11]: did not show any labelling | mean cell surface fluorescence intensity [12]: 9 ± 4 a.u.
